From patent publication US20100298217A1 (published 2010) come the findings set out here.

Assay [1] deals with T1, mouse CSF-1R C432S/C439S mutant expressed on M-/- macrophages (M-/-.C432/439SCSF-1R cells) (mouse, UniProt P09581 20-977).
T1 construct: Full-length mutant receptor, retrovirally transduced into MacCsf1r-/- cells; also called mutant CSF-1R
T1 sequence: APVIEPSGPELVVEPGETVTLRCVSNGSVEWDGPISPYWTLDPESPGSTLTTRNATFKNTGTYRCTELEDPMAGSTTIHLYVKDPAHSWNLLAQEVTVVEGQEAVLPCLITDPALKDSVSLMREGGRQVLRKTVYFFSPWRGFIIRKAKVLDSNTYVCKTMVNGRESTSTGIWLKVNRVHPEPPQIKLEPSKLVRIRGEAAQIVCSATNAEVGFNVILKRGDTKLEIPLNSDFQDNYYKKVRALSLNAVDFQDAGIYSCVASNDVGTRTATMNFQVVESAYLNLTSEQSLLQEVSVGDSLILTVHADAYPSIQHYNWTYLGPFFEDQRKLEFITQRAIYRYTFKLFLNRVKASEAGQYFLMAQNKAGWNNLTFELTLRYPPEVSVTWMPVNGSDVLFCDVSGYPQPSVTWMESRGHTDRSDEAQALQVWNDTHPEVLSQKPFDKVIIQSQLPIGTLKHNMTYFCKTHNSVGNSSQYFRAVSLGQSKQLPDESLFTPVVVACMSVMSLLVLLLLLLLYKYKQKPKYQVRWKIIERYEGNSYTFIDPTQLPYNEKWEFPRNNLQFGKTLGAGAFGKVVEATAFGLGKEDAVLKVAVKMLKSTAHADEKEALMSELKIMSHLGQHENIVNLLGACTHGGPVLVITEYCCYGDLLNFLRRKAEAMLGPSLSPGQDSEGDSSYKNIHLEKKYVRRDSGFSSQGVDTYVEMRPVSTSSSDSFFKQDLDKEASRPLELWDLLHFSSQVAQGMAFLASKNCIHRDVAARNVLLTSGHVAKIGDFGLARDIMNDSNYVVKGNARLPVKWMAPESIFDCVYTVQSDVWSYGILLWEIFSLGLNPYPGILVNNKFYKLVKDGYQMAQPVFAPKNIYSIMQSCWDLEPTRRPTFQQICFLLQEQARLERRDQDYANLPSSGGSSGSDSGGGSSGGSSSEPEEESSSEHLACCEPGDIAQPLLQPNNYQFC
The experiment in a line: CSF-1 binding to upregulated cells carrying the receptor, FIG. 14.

Assay [2] concerns the target T1, mouse CSF-1R C432S/C439S mutant …. The experiment in a line: cell-based or functional assay.

B1: purified human recombinant CSF-1 (ligand, UniProt P09603 36-253, looked up)
chain: SEYCSHMIGSGHLQSLQRLIDSQMETSCQITFEFVDQEQLKDPVCYLKKAFLLVQDIMEDTMRFRDNTPNAIAIVQLQELSLRLKSCFTKDYEEHDKACVRTFYETPLQLLEKVKNVFNETKNLLDKDWNIFSKNCNNSFAECSSQDVVTKPDCNCLYPKAIPSSDPASVSPHQPLAPSMAPVAGLTWEDSEGTEGSSLLPGEQPLHTVDPGSAKQRP
notes: also called human CSF-1; colony stimulating factor-1
On to B1, for which the “maximum CSF-1 binding relative to WT CSF-1R” value in assay [1] was about 70%. Also, in assay [2], the “fold decrease in CSF-1-induced tyrosine phosphorylation and ubiquitination of cells starved of CSF-1 for 24 h” value is about 5 fold.
